Here are results for two substances from patent US20140287434.

Series [1] relates to Lck peptide substrate (YIYGSFK) attached to the carboxy-terminus of the Itk SH2 domain.

Chain of FLAG-tagged Btk full-length enzyme (Q06187 whole entry): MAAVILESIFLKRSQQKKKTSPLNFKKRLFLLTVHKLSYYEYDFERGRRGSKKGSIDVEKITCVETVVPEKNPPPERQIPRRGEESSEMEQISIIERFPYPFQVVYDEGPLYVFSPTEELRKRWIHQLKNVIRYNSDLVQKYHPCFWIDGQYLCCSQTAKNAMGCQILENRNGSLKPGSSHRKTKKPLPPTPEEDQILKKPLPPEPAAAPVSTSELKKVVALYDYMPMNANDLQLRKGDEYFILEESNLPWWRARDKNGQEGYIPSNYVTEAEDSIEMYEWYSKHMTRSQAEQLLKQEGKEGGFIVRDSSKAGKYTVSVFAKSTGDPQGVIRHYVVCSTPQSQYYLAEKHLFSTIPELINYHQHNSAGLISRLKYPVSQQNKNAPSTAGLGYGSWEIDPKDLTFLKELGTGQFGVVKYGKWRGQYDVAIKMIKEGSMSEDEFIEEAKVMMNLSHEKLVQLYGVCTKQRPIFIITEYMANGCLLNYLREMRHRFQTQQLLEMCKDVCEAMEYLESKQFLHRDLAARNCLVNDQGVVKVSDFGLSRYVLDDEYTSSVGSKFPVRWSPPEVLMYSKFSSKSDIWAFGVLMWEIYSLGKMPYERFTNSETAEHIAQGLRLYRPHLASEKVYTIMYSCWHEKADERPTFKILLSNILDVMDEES

Take His-tagged wild type Lck kinase domain: the “phosphorylation by Lck kinase domain (32P, scintillation counting) against the free peptide YIYGSFK” value in series [1] is “most efficiently phosphorylated when attached to the carboxy-terminus of the SH2 domain and this tethered substrate is a better substrate by an order of magnitude”. Take FLAG-tagged Btk full-length enzyme: the “phosphorylation on Y223 in an in vitro kinase assay” value is “only substrates that contain both the site of phosphorylation (Y180 for Itk, Y187 for Tec, Y223 for Btk, and Y783 for PLCγ1) and the adjacent SH2 domain are phosphorylated by the Tec kinases” in the series with Btk SH3-SH2 (Btk 32); “are not phosphorylated by the Tec and Btk kinases” with Btk SH3.
